Reference: patent publication US20260265392A1 (TSINGHUA UNIVERSITY, published 2026)

Tests used:
[1] = molecular target: T1, recombinant protein (SUM)5-DNB (Alexa647 label in the imaging experiment (site not stated)); assay: fluorescence imaging of SJSA-1 cells, 100 nM each; co-localization (FIG. 3A, 3B)
T1 construct: Fusion of a multivalent domain with a nanobody; also called (SUM)5-DNB (Green)
Source text: (§1) Wherein, “Anti DR5” and “Anti CXCR4” respectively represent the fluorescence images of endogenous DR5 and CXCR4 obtained by immunofluorescence staining with DR5 antibody (Abcam, ab8416) and CXCR4 antibody (Protein Tech, 60042-1-Ig). […] The horizontal axis represents the relative distance along the straight path, and the vertical axis represents the relative fluorescence intensity measured at the corresponding position. […] From left to right, they correspond to treatment groups 1 to 3 listed in Example 2. […] The horizontal axis represents various recombinant protein treatment combinations with a final concentration of 100 nM. The vertical axis represents the fluorescence area corresponding to each spot.
(§2) The above recombinant protein combinations were added to the culture medium to a final concentration of 100 nM. The added culture medium was mixed, incubated at 37° C. for about 1 min, and then imaged by total internal reflection fluorescence microscopy (TIRF).

[2] = molecular target: T2, CXC motif chemokine receptor 4 (CXCR4) (human, UniProt P61073 1-352); assay: immunofluorescence of endogenous CXCR4 on SJSA-1 cells with labelled fusion proteins; co-localization (FIG. 3A, 3B)
T2 construct: whole, on cells; In the assays CXCR4 is the endogenous receptor of human cells; also called chemokine receptor CXCR4; endogenous CXCR4
Source text: as §1, §2

[3] = molecular target: T3, multivalent domain (SUM)5 (Alexa647 label in the imaging experiment (site not stated)); assay: laser confocal imaging of SJSA-1 cells with (SIM)6-R4L (Red) and (SUM)5 (Green), 100 nM each (combination 1, FIG. 2A); co-localization
T3 construct: also called (SUM)5 (Green)
Protocol: (§3) Human osteosarcoma SJSA-1 cells (purchased from ATCC (https://www.atcc.org/)) were treated with the above-labeled recombinant proteins or control solution, and then immediately subjected to laser confocal scanning microscopy imaging. The steps are as follows:
(§4) Human osteosarcoma cell line SJSA-1 was cultured in RMPI-1640 medium containing 10% fetal bovine serum (FBS, purchased from Gibco) and 1× penicillin-streptomycin (purchased from HyClone) to 70%-80% confluence. The following combinations of recombinant proteins were added to the culture medium at the same time: (1) (SIM)₆-R4L (Red) and (SUM)₅ (Green), (2) (SIM)₆ (Red) and (SUM)₅-TRAIL (Green), (3) (SIM)₆-R4L (Red) and (SUM)₅-TRAIL (Green), (4) (SIM)₆ (Red) and (SUM)₅ (Green), to a final concentration of 100 nM respectively. The culture medium after adding the recombinant protein was mixed, incubated at 37° C. for about 1 min, and then imaged using a NIKON AIR HD25 laser confocal microscope (purchased from Nikon, Inc.).

[4] = molecular target: T2, CXC motif chemokine receptor 4 (CXCR4); assay: laser confocal imaging of SJSA-1 cells: membrane puncta only with ligand-fused domains; the receptor was not stained in this example
Protocol: as §3, §4

[5] = molecular target: T4, recombinant protein (SUM)3-DNB (Alexa647 label in the imaging experiment only (site not stated); no label is stated for the apoptosis assays); assay: fluorescence imaging of SJSA-1 cells; co-localization (FIG. 5A, 5B)
T4 construct: Fusion of a multivalent domain with a nanobody; also called (SUM)3-DNB (Green); fusion protein (SUM)3-DNB
Source text: (§5) Wherein, “Anti-DR5” and “Anti-CXCR4” respectively represent the fluorescence images of endogenous DR5 and CXCR4 obtained by immunofluorescence staining with DR5 antibody (Abcam, Catalog No. ab8416) and CXCR4 antibody (Protein Tech, Catalog No. 60042-1-Ig). […] The horizontal axis represents the relative distance along the straight path, and the vertical axis represents the relative fluorescence intensity measured at the corresponding position. […] The horizontal axis represents various recombinant protein treatment combinations with a final concentration of 100 nM. The vertical axis represents the fluorescence area corresponding to each spot.
as §2
(§6) By the same method as in Example 2, the total internal reflection fluorescence microscopy (TIRF) imaging of the following recombinant protein combination against the human osteosarcoma cell line SJSA-1 was measured, and the results are shown in FIG. 5: [0136] Treatment group: combination of (SIM)₃-CNB (Red) and (SUM)₃-DNB (Green) [0137] Control group: combination of (SIM)₃ (Red) and (SUM)₃ (Green)

[6] = molecular target: T2, CXC motif chemokine receptor 4 (CXCR4); assay: immunofluorescence of endogenous CXCR4 on SJSA-1 cells with labelled fusion proteins; co-localization (FIG. 5A, 5B)
Source text: as §5, §2, §6

T2 sequence (P61073 whole entry, the tested form may be a part): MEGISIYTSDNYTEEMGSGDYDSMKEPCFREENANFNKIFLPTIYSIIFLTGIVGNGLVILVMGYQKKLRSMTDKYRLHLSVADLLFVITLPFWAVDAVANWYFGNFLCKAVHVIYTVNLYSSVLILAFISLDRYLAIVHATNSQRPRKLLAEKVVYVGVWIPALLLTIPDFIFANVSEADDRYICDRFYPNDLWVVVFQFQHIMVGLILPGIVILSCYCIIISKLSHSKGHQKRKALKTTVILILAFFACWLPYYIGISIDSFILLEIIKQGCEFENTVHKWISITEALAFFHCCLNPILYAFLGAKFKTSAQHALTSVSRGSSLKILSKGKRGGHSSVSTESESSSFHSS
T3 sequence (chain, as listed by the source): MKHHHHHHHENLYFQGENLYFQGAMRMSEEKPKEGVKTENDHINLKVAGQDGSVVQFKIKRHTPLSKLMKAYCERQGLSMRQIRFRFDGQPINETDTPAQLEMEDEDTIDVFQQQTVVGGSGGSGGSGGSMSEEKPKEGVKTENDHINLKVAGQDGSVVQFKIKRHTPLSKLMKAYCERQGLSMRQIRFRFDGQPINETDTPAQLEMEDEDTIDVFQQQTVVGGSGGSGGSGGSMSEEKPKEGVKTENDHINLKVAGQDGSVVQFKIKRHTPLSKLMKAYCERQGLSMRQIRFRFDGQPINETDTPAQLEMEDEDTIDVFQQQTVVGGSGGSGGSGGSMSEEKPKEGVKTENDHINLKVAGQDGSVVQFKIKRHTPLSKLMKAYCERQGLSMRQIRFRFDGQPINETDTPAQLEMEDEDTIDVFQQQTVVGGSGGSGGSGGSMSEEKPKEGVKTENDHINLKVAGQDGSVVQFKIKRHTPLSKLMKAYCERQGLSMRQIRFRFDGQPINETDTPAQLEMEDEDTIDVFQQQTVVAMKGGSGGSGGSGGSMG
T1 sequence (chain, as listed by the source): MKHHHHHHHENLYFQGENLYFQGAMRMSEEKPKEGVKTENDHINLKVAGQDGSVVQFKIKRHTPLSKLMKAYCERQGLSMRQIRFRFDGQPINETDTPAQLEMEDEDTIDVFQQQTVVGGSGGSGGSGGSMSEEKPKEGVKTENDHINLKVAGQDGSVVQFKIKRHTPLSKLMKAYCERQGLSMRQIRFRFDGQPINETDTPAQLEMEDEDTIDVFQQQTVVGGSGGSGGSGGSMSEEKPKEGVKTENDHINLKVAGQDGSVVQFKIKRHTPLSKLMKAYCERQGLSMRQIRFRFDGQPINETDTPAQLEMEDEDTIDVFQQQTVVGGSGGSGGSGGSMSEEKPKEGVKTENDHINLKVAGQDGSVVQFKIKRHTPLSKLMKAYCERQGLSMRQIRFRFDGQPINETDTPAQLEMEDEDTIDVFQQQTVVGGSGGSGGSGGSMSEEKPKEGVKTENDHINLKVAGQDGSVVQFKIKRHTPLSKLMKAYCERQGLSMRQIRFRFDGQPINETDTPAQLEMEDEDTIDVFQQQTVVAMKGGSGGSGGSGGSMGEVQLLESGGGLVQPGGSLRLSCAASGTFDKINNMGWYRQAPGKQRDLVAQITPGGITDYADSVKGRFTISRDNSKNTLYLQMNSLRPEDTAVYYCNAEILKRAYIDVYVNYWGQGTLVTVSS
T4 sequence (chain, as listed by the source): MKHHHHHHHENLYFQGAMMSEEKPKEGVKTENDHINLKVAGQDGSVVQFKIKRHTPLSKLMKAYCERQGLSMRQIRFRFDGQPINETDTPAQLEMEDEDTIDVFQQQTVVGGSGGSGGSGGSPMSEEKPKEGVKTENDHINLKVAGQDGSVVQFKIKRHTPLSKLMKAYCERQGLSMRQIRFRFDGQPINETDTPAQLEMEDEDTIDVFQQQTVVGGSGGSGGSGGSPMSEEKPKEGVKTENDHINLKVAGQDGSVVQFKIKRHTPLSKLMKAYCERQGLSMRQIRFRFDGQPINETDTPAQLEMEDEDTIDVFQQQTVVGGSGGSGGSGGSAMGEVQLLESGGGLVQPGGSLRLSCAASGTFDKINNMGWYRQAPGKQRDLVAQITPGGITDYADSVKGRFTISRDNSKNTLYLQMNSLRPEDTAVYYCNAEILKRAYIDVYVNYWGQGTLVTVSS

B1: recombinant protein (SIM)6-CNB (VHH)
chain: MKHHHHHHHENLYFQGAMSSKVDVIDLTIESSSDEEEDPPAKRGGSGGSGGSGGSKVDVIDLTIESSSDEEEDPPAKRGGSGGSGGSGGSKVDVIDLTIESSSDEEEDPPAKRGAMKGGSGGSGGSGGSMSSKVDVIDLTIESSSDEEEDPPAKRGGSVGSGGSGGSKVDVIDLTIESSSDEEEDPPAKRGGSGGSGGRGGSKVDVIDLTIESSSDEEEDPPAKRGAMRCWGGSGGSGGSGGSMGEVQLMESGGGLVQAGGSLRLSCAASGRTFNNYAMGWFRRAPKGEREFVAAITRSGVRSGVSAIYGDSVKDRFTISRDNAKNTLYLQMNSLKPEDTAVYTCAASAIGSGALRRFEYDYSGQGTQVTVSS
modifications: Alexa594 label in the imaging experiment (site not stated)
notes: Fusion of a multivalent domain with a nanobody; also called (SIM)6-CNB (Red)
[1]
  binding result: binds
[2]
  binding result: binds

B2: recombinant protein (SIM)6-R4L (ligand)
chain: MKHHHHHHHENLYFQGAMSSKVDVIDLTIESSSDEEEDPPAKRGGSGGSGGSGGSKVDVIDLTIESSSDEEEDPPAKRGGSGGSGGSGGSKVDVIDLTIESSSDEEEDPPAKRGAMKGGSGGSGGSGGSMSSKVDVIDLTIESSSDEEEDPPAKRGGSVGSGGSGGSKVDVIDLTIESSSDEEEDPPAKRGGSGGSGGRGGSKVDVIDLTIESSSDEEEDPPAKRGAMRCWGGSGGSGGSGGSMGMCYRKCRGGRRWCYQKCGGSGGSGGSGGS
modifications: Alexa594 label in the imaging experiment (site not stated)
notes: also called (SIM)6-R4L (Red)
[3]
  binding result: binds
[4]
  binding result: binds

B3: recombinant protein (SIM)3-CNB (VHH)
chain: MKHHHHHHHENLYFQGAMKVDVIDLTIESSSDEEEDPPAKRGGSGGSGGSGGSMMKVDVIDLTIESSSDEEEDPPAKRGGSGGSGGSGGSMMKVDVIDLTIESSSDEEEDPPAKRGGSGGSGGSGGSMGEVQLMESGGGLVQAGGSLRLSCAASGRTFNNYAMGWFRRAPKGEREFVAAITRSGVRSGVSAIYGDSVKDRFTISRDNAKNTLYLQMNSLKPEDTAVYTCAASAIGSGALRRFEYDYSGQGTQVTVSS
modifications: Alexa594 label in the imaging experiment (site not stated)
notes: Fusion of a multivalent domain with a nanobody; also called (SIM)3-CNB (Red); fusion protein (SIM)3-CNB
[5]
  binding result: binds
[6]
  binding result: binds
